* marks the point of attachment. 5FAM = O=C1OC2(c3ccc(O)cc3Oc3cc(O)ccc32)c2ccc(C(=O)*)cc21
B1: PGC1α FAM-labeled coregulator peptide (peptide)
peptide: 5FAM-EEPSLLKKLLLAPA-OH
SMILES: CC(C)C[C@H](NC(=O)[C@H](CC(C)C)NC(=O)[C@H](CC(C)C)NC(=O)[C@H](CCCCN)NC(=O)[C@H](CCCCN)NC(=O)[C@H](CC(C)C)NC(=O)[C@H](CC(C)C)NC(=O)[C@H](CO)NC(=O)[C@@H]1CCCN1C(=O)[C@H](CCC(=O)O)NC(=O)[C@H](CCC(=O)O)NC(=O)c1ccc2c(c1)C(=O)OC21c2ccc(O)cc2Oc2cc(O)ccc21)C(=O)N[C@@H](C)C(=O)N1CCC[C@H]1C(=O)N[C@@H](C)C(=O)O
B2: SHP-1 FAM-labeled coregulator peptide (peptide)
peptide: 5FAM-RPTILYALLSPSPR-OH
SMILES: CC[C@H](C)[C@H](NC(=O)[C@@H](NC(=O)[C@@H]1CCCN1C(=O)[C@H](CCCNC(=N)N)NC(=O)c1ccc2c(c1)C(=O)OC21c2ccc(O)cc2Oc2cc(O)ccc21)[C@@H](C)O)C(=O)N[C@@H](CC(C)C)C(=O)N[C@@H](Cc1ccc(O)cc1)C(=O)N[C@@H](C)C(=O)N[C@@H](CC(C)C)C(=O)N[C@@H](CC(C)C)C(=O)N[C@@H](CO)C(=O)N1CCC[C@H]1C(=O)N[C@@H](CO)C(=O)N1CCC[C@H]1C(=O)N[C@@H](CCCNC(=N)N)C(=O)O
B3: DAX1-3 FAM-labeled coregulator peptide (peptide)
peptide: 5FAM-QGSILYSLLMSAKQ-OH
SMILES: CC[C@H](C)[C@H](NC(=O)[C@H](CO)NC(=O)CNC(=O)[C@H](CCC(N)=O)NC(=O)c1ccc2c(c1)C(=O)OC21c2ccc(O)cc2Oc2cc(O)ccc21)C(=O)N[C@@H](CC(C)C)C(=O)N[C@@H](Cc1ccc(O)cc1)C(=O)N[C@@H](CO)C(=O)N[C@@H](CC(C)C)C(=O)N[C@@H](CC(C)C)C(=O)N[C@@H](CCSC)C(=O)N[C@@H](CO)C(=O)N[C@@H](C)C(=O)N[C@@H](CCCCN)C(=O)N[C@@H](CCC(N)=O)C(=O)O

Target: human LRH-1 (NR5A2) ligand-binding domain (LBD) (human, UniProt O00482-1 266-541)
Sequence (O00482 266-541): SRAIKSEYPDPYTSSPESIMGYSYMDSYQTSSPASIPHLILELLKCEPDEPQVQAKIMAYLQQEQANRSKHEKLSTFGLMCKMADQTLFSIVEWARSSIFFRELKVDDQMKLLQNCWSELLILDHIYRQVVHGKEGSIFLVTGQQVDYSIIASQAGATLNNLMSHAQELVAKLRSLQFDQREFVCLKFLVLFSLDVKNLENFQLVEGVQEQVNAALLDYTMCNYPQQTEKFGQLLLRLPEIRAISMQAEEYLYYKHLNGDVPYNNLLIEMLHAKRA
Assay: fluorescence polarisation

Binder	binding result
B1	binds
B2	binds
B3	binds

— article doi:10.1101/2024.05.05.592606 (bioRxiv, 2024)
